Consider 1 protein from PMC3386213 (Molecular Biology of the Cell, 2012).

The series deals with the molecule itself. The series is described as follows: cross-linking.

B1: HA-tagged KCTD6 N-terminal BTB domain (domain or fragment)
chain: MDNGDWGYMMTDPVTLNVGGHLYTTSLTTLTRYPDSMLGAMFGGDFPTARDPQGNYFIDRDGPLFRYVLNFLRTSELTLPLDFKEFDLLRKEADFYQIEPLIQCLNDPKPLYPMDTFEEVVELSSTRKLSKYSNPVAVIITQLTITT
For the protein B1, the stoichiometry N (as a rule, the number of molecules, sites or subunits per partner or assembly) amounted to 2.
